Tested on: K4 kissing-loop RNA reporter
Test: apparent KD of K4 kissing-loop reporter; higher = weaker reporter binding
Details: Eterna round: R107
Experimental: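 RNA-MaP round R107: designed RNA switches with theophylline, tryptophan, arginine or FMN aptamers are transcribed on-chip within common flanks. They are titrated with a labelled K4 kissing-loop RNA reporter in RNA-MaP buffer (100 mM Tris pH 7.5, 80 mM KCl, 4 mM MgCl2), without ligand or with the indicated ligand. Median apparent KD per design.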

[1] = input ligand: theophylline 20 uM
[2] = input ligand: tryptophan 2.4 mM
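Note: bound reporter read as fluorescence of individual clusters on recovered sequencing chips by microscopy, with normalized cluster intensities fitted with a binding model.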

## GCGUCUGUCGGAAGGAGCGCACUAUGGAGUGAUGUUCCAUGACCGCACAGCUUGCGGUCAGUGCAGGUAGGUCGCCGAUAGCGUU [Diestera]
Input ligand: FMN 200 uM
  apparent KD of K4 kissing-loop reporter: 161 nM
Input ligand: arginine 13.2 mM
  apparent KD of K4 kissing-loop reporter: 157 nM
Input ligand: none
  apparent KD of K4 kissing-loop reporter: 154 nM
[1]
  apparent KD of K4 kissing-loop reporter: 190 nM
[2]
  apparent KD of K4 kissing-loop reporter: 144 nM

## GUAUUUCCCUCGGAUACCAGUCAUCAUGAGUAUAGUGAUGUUGUACGUCCGGAUGAUUUUGACCCUUGGCAGCCGUCUCCUUGAA [theeternabot_sameState_KL_Theo_B_49]
Input ligand: FMN 200 uM
  apparent KD of K4 kissing-loop reporter: 515 nM
Input ligand: arginine 13.2 mM
  apparent KD of K4 kissing-loop reporter: 371 nM
Input ligand: none
  apparent KD of K4 kissing-loop reporter: 593 nM
[1]
  apparent KD of K4 kissing-loop reporter: 497 nM
[2]
  apparent KD of K4 kissing-loop reporter: 540 nM

## AAAAUAAACCAGUGAUGUUGGUGUCCGGAUACCAGCGAUAAUCAUCGCCCUUGGCAGCCGCGGACGUACAAAAUAAGUACGUCCU [MatMod 13 - Jieux - Same State - Theophylline A]
Input ligand: FMN 200 uM
  apparent KD of K4 kissing-loop reporter: 457 nM
Input ligand: arginine 13.2 mM
  apparent KD of K4 kissing-loop reporter: 271 nM
Input ligand: none
  apparent KD of K4 kissing-loop reporter: 346 nM
[1]
  apparent KD of K4 kissing-loop reporter: 310 nM
[2]
  apparent KD of K4 kissing-loop reporter: 256 nM

## GUGAGGAUCAGAAGGAGCGUCGGCAAUCCAGUGAUGUUGGGUGUUGGUUAUAUUUAACGACGACAGGUAGGUCGCUGAUUUUCAA [Same State Arginie B GF 21]
Input ligand: FMN 200 uM
  apparent KD of K4 kissing-loop reporter: 163 nM
Input ligand: arginine 13.2 mM
  apparent KD of K4 kissing-loop reporter: 107 nM
Input ligand: none
  apparent KD of K4 kissing-loop reporter: 163 nM
[1]
  apparent KD of K4 kissing-loop reporter: 190 nM
[2]
  apparent KD of K4 kissing-loop reporter: 140 nM

## AAUAAAAUCACGGCCGCCACUGAAUAAUUACAAAGUAGUGAUGUUACUUUACAUAUCUUAUUUAACAGGACCGGGUGAAUAUUUA [JR_ExcTryptoB_Sub007]
Input ligand: FMN 200 uM
  apparent KD of K4 kissing-loop reporter: 78.6 nM
Input ligand: arginine 13.2 mM
  apparent KD of K4 kissing-loop reporter: 70.2 nM
Input ligand: none
  apparent KD of K4 kissing-loop reporter: 76.2 nM
[1]
  apparent KD of K4 kissing-loop reporter: 69.7 nM
[2]
  apparent KD of K4 kissing-loop reporter: 78.3 nM

## UUUGUAUAGGGAAGGAGCGUGAAUGAUAAUGAAUAUAGUGAUGUUAUAUAUAAGAAAGAAUCACAGGUAGGUCGCCCGGAUGAGU [SSArgB.L]
Input ligand: FMN 200 uM
  apparent KD of K4 kissing-loop reporter: 432 nM
Input ligand: arginine 13.2 mM
  apparent KD of K4 kissing-loop reporter: 323 nM
Input ligand: none
  apparent KD of K4 kissing-loop reporter: 477 nM
[1]
  apparent KD of K4 kissing-loop reporter: 447 nM
[2]
  apparent KD of K4 kissing-loop reporter: 356 nM

## AAAUAUAGUGAUGUUAUAUAUAUAUGUGAUACCAGAGAAAGAAAACUCCCUUGGCAGCACGAGAGAGAAUUUUUUUUUUAUAUAU [AstrosSSTheA#1]
Input ligand: FMN 200 uM
  apparent KD of K4 kissing-loop reporter: 362 nM
Input ligand: arginine 13.2 mM
  apparent KD of K4 kissing-loop reporter: 398 nM
Input ligand: none
  apparent KD of K4 kissing-loop reporter: 552 nM
[1]
  apparent KD of K4 kissing-loop reporter: 414 nM
[2]
  apparent KD of K4 kissing-loop reporter: 245 nM

## AUCGUUGUCUGAGGAUAUCGGUUAUCUGUAGUGAUGUUACAGUAUAUUGAUAUUAAAGUUUCUAUUCGAGAAGGCAGACUACGUA [JR_Nu_ExcFMNB_Sub022]
Input ligand: FMN 200 uM
  apparent KD of K4 kissing-loop reporter: 71.4 nM
Input ligand: arginine 13.2 mM
  apparent KD of K4 kissing-loop reporter: 65.4 nM
Input ligand: none
  apparent KD of K4 kissing-loop reporter: 72.1 nM
[1]
  apparent KD of K4 kissing-loop reporter: 58.9 nM
[2]
  apparent KD of K4 kissing-loop reporter: 71.9 nM

## GAAGGUCAAAGACCUUCGUGCACAUCUGAUACCAGUCGCGAAAGCGACCCUUGGCAGCAGGGCAGUGAUGUUGCCAGUGCACAAA [Omei KL Theo A SS A v4]
Input ligand: FMN 200 uM
  apparent KD of K4 kissing-loop reporter: 255 nM
Input ligand: arginine 13.2 mM
  apparent KD of K4 kissing-loop reporter: 221 nM
Input ligand: none
  apparent KD of K4 kissing-loop reporter: 273 nM
[1]
  apparent KD of K4 kissing-loop reporter: 168 nM
[2]
  apparent KD of K4 kissing-loop reporter: 253 nM

## UUGCGGAGUGAUGUUUCGGGAUAUCGGGAAGGAGCGCCGAUAACGGCAGGUAGGUCGCCCGGUCCAGUGAUGUUGGGCAUGCAUU [Exclusion Arg A GF 23]
Input ligand: FMN 200 uM
  apparent KD of K4 kissing-loop reporter: 200 nM
Input ligand: arginine 13.2 mM
  apparent KD of K4 kissing-loop reporter: 136 nM
Input ligand: none
  apparent KD of K4 kissing-loop reporter: 212 nM
[1]
  apparent KD of K4 kissing-loop reporter: 201 nM
[2]
  apparent KD of K4 kissing-loop reporter: 171 nM

## UGUACCGAGUCAGGAUAUGUCGUCGAAAGACGAAAUGGAGUGAUGUUCCUUAAACUGCGAAAGCAGACAGAAGGGAUUUGGUACU [FmnBS 29 U77]
Input ligand: FMN 200 uM
  apparent KD of K4 kissing-loop reporter: 207 nM
Input ligand: arginine 13.2 mM
  apparent KD of K4 kissing-loop reporter: 654 nM
Input ligand: none
  apparent KD of K4 kissing-loop reporter: 739 nM
[1]
  apparent KD of K4 kissing-loop reporter: 738 nM
[2]
  apparent KD of K4 kissing-loop reporter: 717 nM

## UAGUCCUAGUGAUCCUUAUCAAGUGGUGGGCGAGGACCGGUACGGCCGCCACUCGACUAUGCAGUGAUGUUGUAAUCCGGACAAU [Exclusion - Tryptophan A (Freestyle 12)]
Input ligand: FMN 200 uM
  apparent KD of K4 kissing-loop reporter: 669 nM
Input ligand: arginine 13.2 mM
  apparent KD of K4 kissing-loop reporter: 488 nM
Input ligand: none
  apparent KD of K4 kissing-loop reporter: 633 nM
[1]
  apparent KD of K4 kissing-loop reporter: 742 nM
[2]
  apparent KD of K4 kissing-loop reporter: 541 nM

## UGAUAGGACAGAAGGAGCGGUAGUGAUGUUACCAAAAGGGUAAGGUGUCAAAAGACACCCUACCAGGUAGGUCGCUGUCCUAUCU
Input ligand: FMN 200 uM
  apparent KD of K4 kissing-loop reporter: 110 nM
Input ligand: arginine 13.2 mM
  apparent KD of K4 kissing-loop reporter: 96 nM
Input ligand: none
  apparent KD of K4 kissing-loop reporter: 104 nM
[1]
  apparent KD of K4 kissing-loop reporter: 84.3 nM
[2]
  apparent KD of K4 kissing-loop reporter: 82.8 nM

## GCAACAUUGGCAGGAUAUCCUUCUCAGUGAUGUUGAGGGUUCAGCUAACGAAAGUUAGUUGUACCGGGAGAAGGGCUAAUGUUGC [Omei KL FMN B SS A v8]
Input ligand: FMN 200 uM
  apparent KD of K4 kissing-loop reporter: 288 nM
Input ligand: arginine 13.2 mM
  apparent KD of K4 kissing-loop reporter: 650 nM
Input ligand: none
  apparent KD of K4 kissing-loop reporter: 1100 nM
[1]
  apparent KD of K4 kissing-loop reporter: 913 nM
[2]
  apparent KD of K4 kissing-loop reporter: 1240 nM

## CUCUAGGCGCUCGCGUGAGUGAUGUUUACGCGAGGACCGGUACGGCCGCCACUCGCAGACUGGGUGUAAGCGGAGCUGUAUGCCC [theeternabot_exclusion_KL_Trp_A_12]
Input ligand: FMN 200 uM
  apparent KD of K4 kissing-loop reporter: 277 nM
Input ligand: arginine 13.2 mM
  apparent KD of K4 kissing-loop reporter: 158 nM
Input ligand: none
  apparent KD of K4 kissing-loop reporter: 212 nM
[1]
  apparent KD of K4 kissing-loop reporter: 174 nM
[2]
  apparent KD of K4 kissing-loop reporter: 223 nM

## AGGGCGGAGUGAUGUUCCGGCUCCCGAUUUAAGGAUAUUGCGUAAACAAGAAGGUAAAGGCGCAGCAAUAUUAUUUCGUAAGGCG [theeternabot_exclusion_KL_FMN_A_23]
Input ligand: FMN 200 uM
  apparent KD of K4 kissing-loop reporter: 85.5 nM
Input ligand: arginine 13.2 mM
  apparent KD of K4 kissing-loop reporter: 103 nM
Input ligand: none
  apparent KD of K4 kissing-loop reporter: 93.7 nM
[1]
  apparent KD of K4 kissing-loop reporter: 111 nM
[2]
  apparent KD of K4 kissing-loop reporter: 79.1 nM

## AAACAACUUGACGAUACCAGCUUACUCGGCAAGCCAGUGAUGUUGGUGAAAAGGAGUCAAAGCCCUUGGCAGCGUCGAAGGUCUG [Raatarerin]
Input ligand: FMN 200 uM
  apparent KD of K4 kissing-loop reporter: 271 nM
Input ligand: arginine 13.2 mM
  apparent KD of K4 kissing-loop reporter: 240 nM
Input ligand: none
  apparent KD of K4 kissing-loop reporter: 304 nM
[1]
  apparent KD of K4 kissing-loop reporter: 119 nM
[2]
  apparent KD of K4 kissing-loop reporter: 258 nM

## AGACUACUGAUAGGAUAUAACAUACUAGCUCGUAUACCAAAGGUAUACGAGCUCCUUCUAGUGAUGUUAGAAGGGUCGGUAGUCA [Omei KL FMN B Exc B v4]
Input ligand: FMN 200 uM
  apparent KD of K4 kissing-loop reporter: 107 nM
Input ligand: arginine 13.2 mM
  apparent KD of K4 kissing-loop reporter: 101 nM
Input ligand: none
  apparent KD of K4 kissing-loop reporter: 106 nM
[1]
  apparent KD of K4 kissing-loop reporter: 99.6 nM
[2]
  apparent KD of K4 kissing-loop reporter: 102 nM

## ACCAUCAAAGAUGGCCUCGACACCGCUGAUACCAGAGUGAAAACACUCCCUUGGCAGCAGGUGAGUGAUGUUCACAGUCGAAGGA [Omel KL Theo A SS B v1]
Input ligand: FMN 200 uM
  apparent KD of K4 kissing-loop reporter: 492 nM
Input ligand: arginine 13.2 mM
  apparent KD of K4 kissing-loop reporter: 464 nM
Input ligand: none
  apparent KD of K4 kissing-loop reporter: 641 nM
[1]
  apparent KD of K4 kissing-loop reporter: 538 nM
[2]
  apparent KD of K4 kissing-loop reporter: 470 nM

## GGGAGUAGUGCGGCCGCCACUGUGAGGGAAGAAGAAUAUAGUGAUGUUAUAUAGGAAGGGAAGAAUAGGACCGGGCAUUAGAUUU [SSTRyptB.aB]
Input ligand: FMN 200 uM
  apparent KD of K4 kissing-loop reporter: 225 nM
Input ligand: arginine 13.2 mM
  apparent KD of K4 kissing-loop reporter: 208 nM
Input ligand: none
  apparent KD of K4 kissing-loop reporter: 245 nM
[1]
  apparent KD of K4 kissing-loop reporter: 230 nM
[2]
  apparent KD of K4 kissing-loop reporter: 198 nM

## GUGCGGCUAGUGAUGUUGGUUGCGUGGGAAGGAGCGCAGAAACAUGCAGGUAGGUCGCCCACAUCUCUGAUAAAAGAUUAAUUCA [Riares]
Input ligand: FMN 200 uM
  apparent KD of K4 kissing-loop reporter: 304 nM
Input ligand: arginine 13.2 mM
  apparent KD of K4 kissing-loop reporter: 254 nM
Input ligand: none
  apparent KD of K4 kissing-loop reporter: 235 nM
[1]
  apparent KD of K4 kissing-loop reporter: 338 nM
[2]
  apparent KD of K4 kissing-loop reporter: 239 nM

Reference: the supplement of paper PMC9170038
